The values that follow come from patent US20260234738A1 (Regeneron, published 2026).

To fix the notation:
B1: mAb10937 (antibody, V domains shown)
VH: QITLKESGPTLVKPTQTLTLTCTFSGFSLSTNVVGVGWIRQPPGKALEWLALIYWNDDKRYSPSLKSRLTITKDTSKNQVVLTMTNMDPVDTATYYCAHGPTGDYFDYWGQGTLVTVSS
VL: not shown
B2: mAb10932 (antibody, V domains shown)
VH: EVQLVESGGGLVQSGGSLRLSCAASGLTVSSNYMSWVRQAPGKGLEWVSVIYSGGSTFYSDSVKGRFTISRHNSKNTLYLQMNSLRAEDTAVYYCARARGDAFDIWGQGTMVTVSS
VL: not shown
B3: mAb10913 (antibody, V domains shown)
VH: EVQLVESGGGLVQPGGSLRLSCAASGFTFRNYEMNWVRQAPGKGLEWVSYITSSGSTMYYADSVKGRFTISRDNAKNSLYLQMNSLRAEDTAVYYCARDGFYYYYAMDVWGQGTTVTVSS
VL: QSVLTQPPSVSAAPGQKVTISCSGSSSNIGNNYVSWYQQLPGTAPKLLIYDNNKRPSGIPDRFSGSKSGTSATLGITGLQTGDEADYYCGTWDSSLSVGRVFGTGTKVTVLG
B4: mAb10934 (antibody, V domains shown)
VH: not shown
VL: DIQMTQSPSSLSASVGDRVTITCQASQDIWNYINWYQQKPGKAPKLLIYDASNLKTGVPSRFSGSGSGTDFTFTISSLQPEDIATYYCQQHDDLPPTFGQGTKVEIKR
B5: mAb10935 (antibody, V domains shown)
VH: EVQLVESGGGLVQPGGSLRLSCAASGFTVSSNYMSWVRQAPGKGLEWVSLIYSGGSTYYADSVKGRFTISRHNSKNTLYLQMNSLRSEDTAVYYCARVPLGDYYYGMDVWGQGTTVTVSS
VL: DIQMTQSPSSLSASVGDRVTITCQASQDINKYLNWYQQKPGKAPKLLIYDASNLETGVPSRFSGSGSGTDFTFTISSLQPEDIATYYCQQSDNLPLTFGGGTKVEIKR
B6: mAb10921 (antibody, V domains shown)
VH: EVQLVESGGGLVQPGGSLRLSCAASGITVSSNYMSWVRQAPGKGLEWVSVIYSGGSTFYADSVKGRFTISRHNSKNTLYLQMNSLRAEDTAVYYCARERNFDAFDIWGQGTMVTVSS
VL: DIQMTQSPSSVSASVGDRVTITCRASQGISSWLAWYQQKPGKAPKLLIYAASSLQSGVPSRFSGSGSGTDFTLTISSLQPEDFATYYCQQANSFPLFTFGPGTKVDIKR
B7: mAb10920 (antibody, V domains shown)
VH: QVQLVESGGGVVQPGRSLRLSCAASGFTFSYYGMHWVRQAPGKGLEWVAVIWYDGSNKFYADSVKGRFTISRDNSKNTLYLQMNSLRAEDTAVYYCAAARPGYYYGMDVWGQGTTVTVSS
VL: DIQMTQSPSSLSASVGDRVTITCRASQGISNYLAWFQQKPGKAPNSLIYAASSLQRGVPSKFSGSGSGTDFTLTISSLQPEDFATYYCQQYNSYPRTFGQGTKVEIKR
B8: mAb10936 (antibody, V domains shown)
VH: QVQLVESGGGVVQPGRSLRLSCAASGFTFRNYGMHWVRQAPGKGLEWVSVIWYDGSNRYYADSVKGRFTISRDTSKNTLYLQMNSLRAEDTAVYYCARDPPITGTTGGDAFDIWGQGTMVTVSS
VL: not shown

This assay has as its target SARS-COV-2 RBD extracellular domain expressed with a C-terminal mouse IgG2a (SARS-CoV-2).
In turn, B1 came in with a Kd of 0.114 nM, a koff of 7.28e-05 s⁻¹, a kon of 639000 M⁻¹ s⁻¹ and a t½ of 2.64 h.

B2 had a Kd not above 0.0413 nM, a koff not above 1e-05 s⁻¹, a kon of 242000 M⁻¹ s⁻¹ and a t½ not below 19.2 h.

In turn, B3 showed an equilibrium dissociation constant (Kd) of 0.244 nM, a koff of 0.000152 s⁻¹, a kon of 623000 M⁻¹ s⁻¹ and a t½ of 1.27 h.

B4 gave a Kd of 0.0832 nM and a t½ of 1.64 h.

Take B5: the Kd was not above 0.0261 nM, the koff was not above 1e-05 s⁻¹, the kon was 383000 M⁻¹ s⁻¹ and the t½ is not below 19.2 h.

With B6, the Kd is not above 0.0375 nM, the koff was not above 1e-05 s⁻¹ and the t½ is not below 19.2 h.

Regarding B7, the Kd came to 0.416 nM and the t½ stood at 0.658 h.

B8 gave a Kd not above 0.0153 nM, a koff not above 1e-05 s⁻¹, a kon of 652000 M⁻¹ s⁻¹ and a t½ not below 19.2 h.
